According to patent publication US12325756:
Each block holds one binder with its values, some of them ahead of it.

Columns and labels:
[1] = molecular target: human mesothelin on tumor cells (C30-M, C30M/F, A1847) (human), Q13421; test: cell-based or functional assay
[2] = molecular target: human alpha-folate receptor on tumor cells (C30-F, C30M/F, A1847) (human), P15328; test: cell-based or functional assay
Chain of human alpha-folate receptor on tumor cells (C30-F, C30M/F, A1847) (human), P15328 (P15328 25-234, stated change not applied): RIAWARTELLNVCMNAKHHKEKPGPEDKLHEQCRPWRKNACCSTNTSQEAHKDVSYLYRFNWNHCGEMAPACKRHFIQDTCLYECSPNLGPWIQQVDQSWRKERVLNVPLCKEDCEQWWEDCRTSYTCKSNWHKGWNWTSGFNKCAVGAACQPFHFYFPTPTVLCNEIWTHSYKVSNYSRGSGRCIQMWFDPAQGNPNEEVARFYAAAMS

Chain of human mesothelin on tumor cells (C30-M, C30M/F, A1847) (human), Q13421 (Q13421 other isoform, or with tags, fused parts or gaps C30M C30M): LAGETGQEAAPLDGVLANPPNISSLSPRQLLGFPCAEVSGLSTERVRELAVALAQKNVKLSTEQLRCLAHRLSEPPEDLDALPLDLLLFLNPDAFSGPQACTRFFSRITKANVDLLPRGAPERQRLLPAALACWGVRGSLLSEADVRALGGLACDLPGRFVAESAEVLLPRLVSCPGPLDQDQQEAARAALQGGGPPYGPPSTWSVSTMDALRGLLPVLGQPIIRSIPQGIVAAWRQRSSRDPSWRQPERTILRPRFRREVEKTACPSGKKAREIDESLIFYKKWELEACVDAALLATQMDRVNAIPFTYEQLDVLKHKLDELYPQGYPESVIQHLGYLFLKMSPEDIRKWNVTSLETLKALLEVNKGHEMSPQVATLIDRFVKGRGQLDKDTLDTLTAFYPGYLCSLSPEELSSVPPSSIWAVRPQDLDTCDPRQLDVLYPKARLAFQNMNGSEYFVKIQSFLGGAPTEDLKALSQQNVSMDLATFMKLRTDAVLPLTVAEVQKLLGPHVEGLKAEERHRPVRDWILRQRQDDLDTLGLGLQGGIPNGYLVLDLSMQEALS

apoptosis (annexin V / 7-AAD) after 3 days with A1847 [1]: 34%
B1: P4-z anti-mesothelin chimeric antigen receptor (P4 scFv - CD8a hinge and transmembrane region - CD3z) (protein)
chain: GSQVQLQQSGPGLVTPSQTLSLTCAISGDSVSSNSATWNWIRQSPSRGLEWLGRTYYRSKWYNDYAVSVKSRMSINPDTSKNQFSLQLNSVTPEDTAVYYCARGMMTYYYGMDVWGQGTTVTVSSGILGSGGGGSGGGGSGGGGSQPVLTQSSSLSASPGASASLTCTLRSGINVGPYRIYWYQQKPGSPPQYLLNYKSDSDKQQGSGVPSRFSGSKDASANAGVLLISGLRSEDEADYYCMIWHSSAAVFGGGTQLTVLSASTTTPAPRPPTPAPTIASRPLSLRPEACRPAAGGAVHTRGLDFACDIYIWAPLAGTCGVLLLSLVITLYCRVKFSRSADAPAYQQGQNQLYNELNLGRREEYDVLDKRRGRDPEMGGKPRRKNPQEGLYNELQKDKMAEAYSEIGMKGERRRGKGHDGLYQGLSTATKDTYDALHMQALPPR

apoptosis (annexin V / 7-AAD) after 3 days with A1847 [2]: 0.5 to 1%
B2: MOV19-28 (F-28) costimulatory-only anti-aFR chimeric antigen receptor (MOv-19 scFv - CD8a hinge - CD28 transmembrane - CD28 intracellular domain) (protein)
chain: GSSRAAQPAMAQVQLQQSGAELVKPGASVKISCKASGYSFTGYFMNWVKQSHGKSLEWIGRIHPYDGDTFYNQNFKDKATLTVDKSSNTAHMELLSLTSEDFAVYYCTRYDGSRAMDYWGQGTTVTVSSGGGGSGGGGSGGGGSDIELTQSPASLAVSLGQRAIISCKASQSVSFAGTSLMHWYHQKPGQQPKLLIYRASNLEAGVPTRFSGSGSKTDFTLNIHPVEEEDAATYYCQQSREYPYTFGGGTKLEIKRAAASTTTPAPRPPTPAPTIASQPLSLRPEACRPAAGGAVHTRGLDFACDFWVLVVVGGVLACYSLLVTVAFIIFWVRSKRSRLLHSDYMNMTPRRPGPTRKHYQPYAPPRDFAAYRS
